Measurements: publication PMC10002811, “Timed material self-assembly controlled by circadian clock proteins” (ArXiv, 2024)
Where a chain is given by its changes, count along the chain named. Names and notes keep the numbering of the source. One block for each binder: values may come before it.

What was measured:
Settings in all cases: both partners purified
[1] = molecular target: T1, pS KaiC (KaiC-EA; S431E, T432A) (UniProt Q79PF4 1-519, S431E | T432A); experiment: fluorescence polarisation; colloid-linking conditions: 5.5 μM KaiB (55% b-KaiB), 6.5 μM KaiC (wild-type, pT or pS), 2.2 μM KaiA, 0.4 μM FITC-labeled KaiB K25C; time course
T1 construct: KaiC, circadian clock protein of cyanobacteria, phosphomimetic of the pS431 (night) state; also called pS KaiC mutant; source: recombinantly expressed and purified as previously described
T1 sequence (looked up): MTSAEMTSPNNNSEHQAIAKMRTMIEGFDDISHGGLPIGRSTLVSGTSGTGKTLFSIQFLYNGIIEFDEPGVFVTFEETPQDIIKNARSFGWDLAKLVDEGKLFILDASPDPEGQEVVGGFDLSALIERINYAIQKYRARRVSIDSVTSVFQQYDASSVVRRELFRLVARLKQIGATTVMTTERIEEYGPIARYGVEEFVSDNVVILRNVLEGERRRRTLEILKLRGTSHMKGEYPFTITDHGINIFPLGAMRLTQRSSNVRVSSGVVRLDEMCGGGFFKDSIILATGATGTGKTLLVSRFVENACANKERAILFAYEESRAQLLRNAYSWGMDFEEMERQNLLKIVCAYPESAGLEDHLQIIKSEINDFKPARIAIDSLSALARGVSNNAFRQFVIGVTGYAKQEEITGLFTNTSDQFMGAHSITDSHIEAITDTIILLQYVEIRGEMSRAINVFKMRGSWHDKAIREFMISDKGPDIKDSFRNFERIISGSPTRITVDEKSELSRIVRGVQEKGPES

KaiC (wild-type) [2] = molecular target: T2, KaiC (wild-type) (UniProt Q79PF4 1-519); experiment: fluorescence polarisation; standard oscillator reaction: 1.5 μM KaiA, 3.5 μM KaiC, 3.5 μM KaiB at different ratios of KaiB and b-KaiB, 0.2 μM FITC-labeled KaiB K25C; time course over 144 hrs
T2 construct: KaiC, circadian clock protein of cyanobacteria; hexameric ring; In reactions with KaiA the phosphorylation of S431 and T432 cycles over about 24 h; also called WT KaiC; wild-type KaiC; source: recombinantly expressed and purified as previously described
T2 sequence (looked up): T1 sequence (looked up) with E431S, A432T

[3] = molecular target: T1, pS KaiC (KaiC-EA; S431E, T432A); experiment: pull-down; 6.5 μM KaiC (wild-type, pT or pS) and 5.5 μM KaiB (55% b-KaiB, 45% unlabeled KaiB) in Kai buffer (10% glycerol, 150 mM NaCl, 20 mM Tris-HCl pH 8.0, 5 mM MgCl2, 0.5 mM EDTA, 1 mM ATP); 8 hr at 30°C; b-KaiB and partners removed with streptavidin-coated magnetic beads; supernatant analysed by SDS-PAGE
KaiC (wild-type) [4] = molecular target: T2, KaiC (wild-type); experiment: as above

binding result [1]: binds
binding result (KaiC (wild-type) [2]): binds
B1: FITC-labeled KaiB K25C (natural protein, UniProt Q79PF5 1-102, looked up)
chain: MSPRKTYILKLYVAGNTPNSVRALCTLKNILEVEFQGVYALKVIDVLKNPQLAEEDKILATPTLAKVLPLPVRRIIGDLSDREKVLIGLDLLYGELQDSDDF
modifications: FITC label
notes: KaiB, circadian clock protein of cyanobacteria, with K25C; also called fluorescently labeled KaiB

binding result [3]: binds
binding result (KaiC (wild-type) [4]): binds
B2: biotinylated KaiB (natural protein, UniProt Q79PF5 1-102, looked up)
chain: B1 chain with C25K
modifications: biotin, amine-reactive (potential sites: lysine residues); EZ-Link-Sulfo-NHS-LC-Biotin at a 50x molar excess to KaiB
notes: KaiB, circadian clock protein of cyanobacteria; In the assays b-KaiB was mixed with unlabeled KaiB (55% b-KaiB, 45% KaiB); also called b-KaiB; source: recombinantly expressed and purified as previously described; biotinylated with EZ-Link-Sulfo-NHS-LC-Biotin
